This note sets out measurements from patent US12662542B2, “Agnostic anti-mullerian hormone receptor binding peptides” (OVARES D LLC, priority 2019, dated 2026).

One series has as its system granulosa cells (GCs). Kind of series: Cell Counting Kit-8 (CCK-8) proliferation and cytotoxicity assay. In kind it is cell-based, human. The protocol: GCs were isolated at the time of oocyte retrieval from three IVF/ICSI patients with tubal factor infertility as previously reported. Follicular aspirates were centrifuged at 900×g at room temperature. Blood contaminants were removed from GCs by Histopaque™ 1077 (Sigma-Aldrich™, St. Louis, MO, USA) gradient centrifugation at 800×g for 20 min at room temperature. The GC pellet was resuspended in a 20-ml volume of medium [Dulbecco's modified Eagle's medium/Ham's Nutrient Mixture F-12 (Gibco, Thermo Fisher Scientific, Inc., Waltham, MA, USA) with 10% fetal bovine serum (make) and washed by a further 10-min centrifugation at 500×g. The GC pellet was then resuspended in 1 ml GC preparation medium containing 0.02% (w/v) EDTA and gentle repeated pipetting was performed to break up any cellular clumps. Following further washing, the cell stock was resuspended in the GC culture medium. The cells were seeded in nine-well cell culture plates at a density of 100,000 cells/well in medium and incubated for 24 hours with PBS (control), the NegAMHR2BP (SEQ ID NO: 4), or AMHR2BP (SEQ ID NO: 1).
For determination of cytotoxicity of the novel AMHR2BP (SEQ ID NO: 1), a Cell Counting Kit-8 (CCK-8) proliferation and cytotoxicity assay was used. CCK-8 is a as a sensitive colorimetric assay where Dojindo's highly water-soluble tetrazolium salt is reduced by dehydrogenase activities in cells. Living cells reduce the salt, producing a yellow-color formazan dye, which is soluble in the culture media. The amount of dye, generated by the activities of dehydrogenases in GCs, is directly proportional to the number of living cells. CCK-8 detection sensitivity is very high. We tested the following: (a) AMHR2BP (SEQ ID NO: 1) concentrations: 20 μg/ml, 50 μg/ml, 80 μg/ml, in addition to (b) NegAMHR2BP (SEQ ID NO: 4) 80 μg/ml, and (c) untreated cells (control).

The target in another series is T1, AMH-R2 (Homo sapiens, UniProt Q16671).
T1 construct: GST
T1 sequence (Q16671 18-573): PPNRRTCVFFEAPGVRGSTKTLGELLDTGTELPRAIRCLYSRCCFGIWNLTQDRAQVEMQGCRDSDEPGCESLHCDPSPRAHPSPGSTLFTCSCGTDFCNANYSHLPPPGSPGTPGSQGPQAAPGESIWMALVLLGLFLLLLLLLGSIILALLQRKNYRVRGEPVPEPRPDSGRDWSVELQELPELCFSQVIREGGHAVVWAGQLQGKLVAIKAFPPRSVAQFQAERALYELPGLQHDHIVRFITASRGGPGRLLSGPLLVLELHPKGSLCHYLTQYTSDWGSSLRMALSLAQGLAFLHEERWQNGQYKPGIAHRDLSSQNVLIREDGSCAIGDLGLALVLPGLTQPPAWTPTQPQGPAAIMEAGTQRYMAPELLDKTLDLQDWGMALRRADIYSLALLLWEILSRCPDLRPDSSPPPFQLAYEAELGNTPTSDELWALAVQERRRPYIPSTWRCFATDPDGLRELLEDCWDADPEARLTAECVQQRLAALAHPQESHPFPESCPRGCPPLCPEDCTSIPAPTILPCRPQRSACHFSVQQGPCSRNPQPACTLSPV
The series is described as follows: peptide microarray assay identifying AMH receptor binding peptides. The note with it: microarray signal; for Average: average of Rep 1 and Rep 2; for Rep 1: replicate 1; for Rep 2: replicate 2. From the text: In view of the several actions of AMH, and because of the need for AMH receptor agonists and/or antagonist that can modify the activity of one or more of the AMH receptors, provided herein are AMH receptor binding peptides that modulate the activity of the AMH receptor, as described herein. Briefly, it was hypothesized that peptides that bind AMH receptors could be generated based on the amino acid sequence of the AMH biding site of the AMH-R2 receptor. More particularly, based on the amino acid sequence of the AMH-R2 that is responsible for binding AMH, as well as the amino acid sequences of AMH-R2 that are near the AMH binding site, a peptide microarray was used to identify candidate AMH receptor binding peptides that can activate AMH-R2 and thus produce similar effects to native AMH.
To identify candidate AMH receptor binding peptides described herein, a custom peptide library composed of replicate copies of a 124,000 17 mer peptide microarray was synthesized (Arizona State University, Tempe, AZ) using the method described in Legutki, J. B., et al., Scalable high-density peptide arrays for comprehensive health monitoring. Nat Commun., volume 5, 4785 (2014). The slide was assembled into an Arrayit 4×24 Hybridization Cassette and each peptide microarray was blocked with 150 uL of 30% human sera in 1×PBST for 1 hour at room temperature with shaking After blocking, the slide was washed 3× with 1×PBST using a Biotek plate washer prior to addition of protein targets. Each protein sample was diluted in 30% human sera in 1×PBST and 150 uL of each sample was dispensed into the appropriate wells in the cassette and incubated for 1 hour at 37 C with rotation at 300 rpm on a ThermoMix™ 500 heater/shaker.
After incubation, the cassette was dismantled, the slide washed 3 times in 1×PBST, rinsed three times with distilled, deionized water (ddH2O), and dried in a centrifuge for 2 minutes at 800 rpm. Secondary antibody (anti-GST, GE Healthcare™) was prepared at 10 nM in 30% human sera in 1×PBST and dispensed onto the slide. The slide was incubated for 1 hour at 37 C with rotation at 300 rpm as before. The slide was then washed 3 times in 1×PBST, rinsed 3 times with ddH2O, and dried in a centrifuge for 2 minutes at 800 rpm. Detection antibody, 10 nM Alexa Flour 647 donkey anti-goat IgG (H+L) (ThermoFisher Scientific™), was prepared in 0.75% casein in 1×PBST and dispensed onto the slide. The slide was covered and incubated for 1 hour at 37 C with rotation as before. The slide was washed 3 times in 1×PBST, rinsed 3 times with ddH2O, and dried in a centrifuge for 2 minutes at 800 rpm. The slide was scanned on an Innopsys™ Inoscan 910AL scanner and the resulting TIFF files were analyzed using the Genepix™ Pro 6.0 software. Data files were exported and analyzed using Microsoft Excel™ and JMP™ software.

Square brackets hold non-standard residues; d marks the D form. Ends that are not written are not given here. Peptide text beside a SMILES is read from it.

`CC(C)C[C@@H](NC(=O)[C@@H](C)NC(=O)[C@@H](NC(=O)CNC(=O)[C@H](CO)NC(=O)[C@@H](NC(=O)[C@@H](CCCNC(=N)N)NC(=O)[C@H](Cc1ccccc1)NC(=O)[C@H](CCC(N)=O)NC(=O)[C@H](CC(N)=O)NC(=O)[C@H](Cc1ccc(O)cc1)NC(=O)[C@H](C)NC(=O)[C@H](CC(N)=O)NC(=O)[C@H](CO)NC(=O)CNC(=O)[C@@H](N)C(C)C)C(C)C)C(C)C)C(=O)N[C@@H](CO)C(=O)O` [SEQ ID NO: 1, VGSNAYNQFrVSGValS] (H-VGSNAYNQF[dR]VSGV[dA][dL]S-OH) registered a GCs considered lifeless in the series on granulosa cells (GCs) (20 μg/ml) of 23%. For the same compound, in the series on granulosa cells (GCs) (80 μg/ml), the “GCs that ceased function and were considered lifeless” value is on record as 74%.
As for `CC(C)C[C@@H](NC(=O)[C@@H](C)NC(=O)[C@@H](CCCNC(=N)N)NC(=O)[C@H](CCC(N)=O)NC(=O)[C@H](CC(N)=O)NC(=O)[C@@H](C)NC(=O)[C@H](CC(N)=O)NC(=O)[C@H](C)NC(=O)[C@H](Cc1ccccc1)NC(=O)[C@H](Cc1c[nH]cn1)NC(=O)[C@@H](CCCCN)NC(=O)[C@H](CC(N)=O)NC(=O)[C@H](CO)NC(=O)[C@@H](C)NC(=O)CNC(=O)[C@@H](Cc1c[nH]c2ccccc12)NC(=O)[C@H](N)CCCNC(=N)N)C(=O)O` [SEQ ID NO: 4, rwGaSNkHFANaNQral] (H-[dR][dW]G[dA]SN[dK]HFAN[dA]NQ[dR][dA][dL]-OH; N-terminus and C-terminus assumed), the GC toxicity entry in the series on granulosa cells (GCs) (80 μg/ml) is “low GC toxicity”.
As for “DGlGSVlArkNrrDaVl (DG[dL]GSV[dL]A[dR][dK]N[dR][dR]D[dA]V[dL]) [SEQ ID NO: 5]”, in the series with AMH-R2, the Average was determined as 65453, the “Rep 1” value came out at 65431 and the “Rep 2” value is 65475.
In the same order, the values of “EGlQSSAYNNYwrklVa (EG[dL]QSSAYNNY[dW][dR][dK][dL]V[dA]) [SEQ ID NO: 17]” are 61198, 60241 and 62155.
The like results for “FNGPSArNFYrHDVaVS (FNGPSA[dR]NFY[dR]HDV[dA]VS) [SEQ ID NO: 14]” were, in that order, 61835, 65284 and 58385.
On to “GGrSVSANlQrErkVaG (GG[dR]SVSAN[dL]Q[dR]E[dR][dK]V[dA]G) [SEQ ID NO: 19]”, for which, in the series with AMH-R2, the Average is 56883, the “Rep 1” value stood at 55679 and the “Rep 2” value is given as 58087.
Take “GSwSGAHNFrkSGVlSG (GS[dW]SGAHNF[dR][dK]SGV[dL]SG) [SEQ ID NO: 11]”: in the series with AMH-R2, the Average amounted to 64458, the “Rep 1” value turned out to be 65128 and the “Rep 2” value was 63787.
In the same order, the values of “GlQwSFANGQwrGalSG (G[dL]Q[dW]SFANGQ[dW][dR]G[dA][dL]SG) [SEQ ID NO: 12]” are 63783, 64623 and 62943.
On to “GlYwSAYNPwrHValaS (G[dL]Y[dW]SAYNP[dW][dR]HV[dA][dL][dA]S) [SEQ ID NO: 18]”, for which, in the series with AMH-R2, the Average was 59177, the “Rep 1” value stood at 60848 and the “Rep 2” value is given as 57506.
The like results for “NGrSQAHNlrkaGValS (NG[dR]SQAHN[dL][dR][dK][dA]GV[dA][dL]S) [SEQ ID NO: 15]” were, in that order, 61488, 62940 and 60035.
In the same order, the values of “VGPSVAYNYrVSGValG (VGPSVAYNY[dR]VSGV[dA][dL]G) [SEQ ID NO: 6]” are 65427, 65462 and 65391.
In the same order, the values of “VGwSFAPNGYrlSGVlG (VG[dW]SFAPNGY[dR][dL]SGV[dL]G) [SEQ ID NO: 9]” are 65165, 65176 and 65153.
Take “YGFPSArVNrYwNrHDa (YGFPSA[dR]VN[dR]Y[dW]N[dR]HD[dA]) [SEQ ID NO: 16]”: in the series with AMH-R2, the Average is reported as 61418, the “Rep 1” value worked out at 60363 and the “Rep 2” value is on record as 62472.
The like results for “YwGwSHAkaNQFPNrla (Y[dW]G[dW]SHA[dK][dA]NQFPN[dR][dL][dA]) [SEQ ID NO: 3]” were, in that order, 65484, 65502 and 65465.
The like results for “kGGYSNAYkHNPrVlGS ([dK]GGYSNAY[dK]HNP[dR]V[dL]GS) [SEQ ID NO: 7]” were, in that order, 65425, 65521 and 65329.
On to “kGSNArkNrrDaSGVal ([dK]GSNA[dR][dK]N[dR][dR]D[dA]SGV[dA][dL]) [SEQ ID NO: 20]”, for which, in the series with AMH-R2, the Average amounted to 47876, the “Rep 1” value turned out to be 52284 and the “Rep 2” value stood at 43467.
The like results for “rGSYSNlFANSGErVGV ([dR]GSYSN[dL]FANSGE[dR]VGV) [SEQ ID NO: 13]” were, in that order, 63774, 63996 and 63551.
In the same order, the values of “rGrSQAYNErSGValSG ([dR]G[dR]SQAYNE[dR]SGV[dA][dL]SG) [SEQ ID NO: 10]” are 64591, 63931 and 65250.
In the same order, the values of “wHGwSGANlFPYrSGVS ([dW]HG[dW]SGAN[dL]FPY[dR]SGVS) [SEQ ID NO: 8]” are 65335, 65158 and 65511.
